T1: TREM2 (Homo sapiens, UniProt Q9NZC2)
T1 sequence (Q9NZC2 19-230): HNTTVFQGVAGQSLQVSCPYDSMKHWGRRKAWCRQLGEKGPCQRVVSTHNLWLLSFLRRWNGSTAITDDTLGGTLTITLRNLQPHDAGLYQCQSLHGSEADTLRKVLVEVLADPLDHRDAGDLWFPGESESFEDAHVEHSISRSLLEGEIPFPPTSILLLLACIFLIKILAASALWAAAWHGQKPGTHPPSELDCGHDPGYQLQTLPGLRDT


Experiments:
TREM2 = biological target: T1, TREM2; details: cited from earlier work; for Binding Signal (fold over 6E7 parental antibody) 1st screen 110 nM or 10 nM: 10 nM Ab concentration (values not marked *)
[1] = system: human monocyte-derived macrophages (hMDMs); experiment: Example 2E: CSF1R inhibition by PLX5622, confluence and morphology (Incucyte); format: cell-based; details: plates coated with 10 μg/mL, plus PLX5622 1 μM, 96 hours
Description: PBMCs were isolated from fresh, whole blood from human donors. CD14+ monocytes were isolated using positive magnetic selection (Miltenyi). Cells were plated in UpCell® low-adhesion plates and incubated in culture media with 50 ng/mL CSF1 for 48 hours. After 48 hours, cells were non-enzymatically harvested and plated at 25,000 cells per well in cell culture plates coated with 10 μg/mL of either Ab-3 or a matching isotype control. PLX5622 was immediately added to the cultures to 1 μM, and plates were incubated in a humidified incubator at 37 C, 5% CO2 for an additional 96 hours. During incubation, cells were monitored every two hours using an Incucyte S3® analyzer (2 fields of view per well, imaged at 10×). Confluence was measured using built in S3 software, while area and eccentricity (cell shape) were measured using the built in “Cell By Cell” analysis software. Significance was determined by Student's T-test, two-tailed in Graphpad Prism.

[2] = system: human monocyte-derived macrophages (hMDMs); experiment: Example 1E: CSF1 withdrawal, confluence and Caspase 3/7 apoptosis (Incucyte); format: cell-based; details: CSF1 withdrawal (0 ng/mL), plates coated with 0.4, 2.0 or 10 μg/mL, 72 hours
Description: PBMCs were isolated from fresh, whole blood from human donors. CD14+ monocytes were isolated using positive magnetic selection (Miltenyi). Cells were plated in UpCell® low-adhesion plates and incubated in culture media with 50 ng/mL CSF1 for 48 hours. After 48 hours, cells were non-enzymatically harvested and plated at 25,000 cells per well in cell culture plates coated with 0.4, 2.0, or 10 μg/mL of either Ab-3 or a matching isotype control, and incubated in a humidified incubator at 37C, 5% CO2 for 72 hours. Caspase-3/7 Green reporter dye was included in the some wells to determine the number of apoptotic events over time. During incubation, cells were monitored every two hours using an Incucyte S3® analyzer (2 fields of view per well, imaged at 10×). Confluence levels were determined using the Incucyte® software, and normalized to CSF1 at 50 ng/mL, which was considered as normal culture conditions. Caspase 3/7 positive counts per field of view were calculated using Incucyte® software. Significance was determined by Ordinary One-Way ANOVA, using multiple comparisons in Graphpad Prism.

Row | Molecule | Binding Signal (fold over 6E7 parental antibody) 1st screen 110 nM or 10 nM (TREM2) | Binding Signal (fold over 6E7 parental antibody) 2nd screen 2 nM (TREM2) | Binding Signal (fold over 6E7 parental antibody) 2nd screen 10 nM (TREM2) | confluence ([1]; FIG. 5) | cells with “high area, high eccentricity” (ramified) ([1]; FIG. 6) | confluence ([2]; donors 16 and 26, FIGS. 1 and 2) | Caspase 3/7 levels (apoptosis) ([2]; donors 16 and 26, FIGS. 3 and 4)
1 | V76: 6E7 variant: VH T30G, S63E, F110S; VL N56K (antibody, V domains shown) VH: EVQLVQSGAEVKKPGESLKISCKGSGYSFGSYWIAWVRQMPGKGLEWMGIIYPGDSDTRYSPEFQGQVTISADKSISTAYLQWSSLKASDTAMYFCARQRTFYYDSSDYSDYWGQGTLVTVSS VL: DIQMTQSPSSVSASVGDRVTITCRASQGISSWLAWYQQKPGKAPKLLIYAASSLQKGVPSRFSGSGSGRDFTLTISSLQPEDFATYFCQQADSFPRTFGQGTKLEIK | 4.57 fold over 6E7 parental antibod | 4.34 fold over 6E7 parental antibod | 4.93 fold over 6E7 parental antibod | – | – | – | –
2 | V85: 6E7 variant: VH T30R, I50T, Q99S; VL L54R (antibody, V domains shown) VH: EVQLVQSGAEVKKPGESLKISCKGSGYSFRSYWIAWVRQMPGKGLEWMGTIYPGDSDTRYSPSFQGQVTISADKSISTAYLQWSSLKASDTAMYFCARSRTFYYDSSDYFDYWGQGTLVTVSS VL: DIQMTQSPSSVSASVGDRVTITCRASQGISSWLAWYQQKPGKAPKLLIYAASSRQNGVPSRFSGSGSGTDFTLTISSLQPEDFATYFCQQADSFPRTFGQGTKLEIK | 5.41 fold over 6E7 parental antibod | 5.41 fold over 6E7 parental antibod | 5.37 fold over 6E7 parental antibod | – | – | – | –
3 | V86: 6E7 variant: VH T30G, I34L, Q65E, Q99S; VL L54R (antibody, V domains shown) VH: EVQLVQSGAEVKKPGESLKISCKGSGYSFGSYWLAWVRQMPGKGLEWMGIIYPGDSDTRYSPSFEGQVTISADKSISTAYLQWSSLKASDTAMYFCARSRTFYYDSSDYFDYWGQGTLVTVSS VL: DIQMTQSPSSVSASVGDRVTITCRASQGISSWLAWYQQKPGKAPKLLIYAASSRQNGVPSRFSGSGSGTDFTLTISSLQPEDFATYFCQQADSFPRTFGQGTKLEIK | 4.80 fold over 6E7 parental antibod | 5.17 fold over 6E7 parental antibod | 5.02 fold over 6E7 parental antibod | – | – | – | –
4 | V84: 6E7 variant: VH S28G, F110S; VL A50G (antibody, V domains shown) VH: EVQLVQSGAEVKKPGESLKISCKGSGYGFTSYWIAWVRQMPGKGLEWMGIIYPGDSDTRYSPSFQGQVTISADKSISTAYLQWSSLKASDTAMYFCARQRTFYYDSSDYSDYWGQGTLVTVSS VL: DIQMTQSPSSVSASVGDRVTITCRASQGISSWLAWYQQKPGKAPKLLIYGASSLQNGVPSRFSGSGSGTDFTLTISSLQPEDFATYFCQQADSFPRTFGQGTKLEIK | 1.44 fold over 6E7 parental antibod | 1.45 fold over 6E7 parental antibod | 1.62 fold over 6E7 parental antibod | – | – | – | –
5 | Ab-3: murinized version of a human TREM2 agonist antibody, engineered variant of 13E7; HC SEQ ID NO:2779, LC SEQ ID NO:2780 (antibody, REGION 1..445: note = Murinized Ab-3 HC; REGION 1..214: note = Murinized Ab-3 LC) heavy: EVQLVQSGAEVKKPGESLKISCKGSGYSFTSYWIGWVRQMPGKGLEWMGIIYPGDADARYSPSFQGQVTISADKSISTAYLQWSSLKASDTAMYFCARRRQGIFGDALDFWGQGTLVTVSSAKTTPPSVYPLAPGSAAQTNSMVTLGCLVKGYFPEPVTVTWNSGSLSSGVHTFPAVLQSDLYTLSSSVTVPSSTWPSETVTCNVAHPASSTKVDKKIVPRDCGCKPCICTVPEVSSVFIFPPKPKDVLTITLTPKVTCVVVDISKDDPEVQFSWFVDDVEVHTAQTQPREEQFGSTFRSVSELPIMHQDWLNGKEFKCRVNSAAFPAPIEKTISKTKGRPKAPQVYTIPPPKEQMAKDKVSLTCMITDFFPEDITVEWQWNGQPAENYKNTQPIMDTDGSYFVYSKLNVQKSNWEAGNTFTCSVLHEGLHNHHTEKSLSHSPGK light: EIVMTQSPATLSVSPGERATLSCRASQSVSSNLAWFQQKPGQAPRLLIYGASTRATGIPARFSGSGSGTEFTLTISSLQPEDFAVYYCLQDNNFPPTFGQGTKVDIKRADAAPTVSIFPPSSEQLTSGGASVVCFLNNFYPKDINVKWKIDGSERQNGVLNSWTDQDSKDSTYSMSSTLTLTKDEYERHNSYTCEATHKTSTSPIVKSFNRNEC | – | – | – | restoration of confluence to levels similar to that of vehicle alone | restoration of “high area, high eccentricity” to levels higher than that of vehicle alone | increased confluence levels to that of high CSF1 treated cells | reduced Caspase 3/7 levels to that of high CSF1 treated cells

From US20250326839A1, “TREATMENT OF DISEASES RELATED TO COLONY-STIMULATING FACTOR 1 RECEPTOR DYSFUNCTION USING TREM2 AGONISTS” (Vigil Neuroscience, Inc., priority 2020, published 2025)
